Laboratory results reported in patent US20210079071A1 (published 2021).
Like-named read-outs stand apart in the source and are kept apart here.

What was measured:
[1] = biological target: vWbp peptide vWbp(1-12), […], unconjugated (Staphylococcus aureus); assay: ELISA, unconjugated peptide
[2] = biological target: vWbp peptide vWbp(1-12) conjugated to ovalbumin (Staphylococcus aureus); assay: ELISA: purified GMA-2500 on vWbp peptide-ovalbumin, A490
vWbp-(1-263) [3] = biological target: T1, vWbp-(1-263) (Staphylococcus aureus); assay: ELISA: purified GMA-2500 on the preparation 'vWbp 1-263 022109, RIF 0540E', A490
T1 chain: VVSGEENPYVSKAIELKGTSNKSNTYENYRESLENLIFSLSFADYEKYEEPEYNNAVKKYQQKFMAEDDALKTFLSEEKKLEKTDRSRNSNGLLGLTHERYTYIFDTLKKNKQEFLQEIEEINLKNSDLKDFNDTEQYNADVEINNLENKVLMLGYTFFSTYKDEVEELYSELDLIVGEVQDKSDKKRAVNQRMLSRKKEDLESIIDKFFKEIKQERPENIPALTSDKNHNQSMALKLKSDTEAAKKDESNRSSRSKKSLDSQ

vWbp-(1-263) [4] = biological target: T1, vWbp-(1-263); assay: ELISA: purified GMA-2500 on the preparation 'vWbp 1-263 WT 011113, RIF0540D', A490
[5] = biological target: T2, BODIPY-labeled staphylocoagulase SC (S7C)(1-325) (Staphylococcus aureus, UniProt P17855 27-351)
T2 sequence: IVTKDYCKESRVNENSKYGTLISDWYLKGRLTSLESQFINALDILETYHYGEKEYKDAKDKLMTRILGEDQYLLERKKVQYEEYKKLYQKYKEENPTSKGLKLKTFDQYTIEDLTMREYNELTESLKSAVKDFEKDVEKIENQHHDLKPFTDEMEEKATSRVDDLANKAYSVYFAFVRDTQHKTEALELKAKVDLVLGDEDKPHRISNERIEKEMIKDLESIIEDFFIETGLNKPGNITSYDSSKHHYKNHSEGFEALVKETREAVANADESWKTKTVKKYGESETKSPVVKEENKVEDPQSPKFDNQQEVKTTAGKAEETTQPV

[6] = biological target: T3, Staphylocoagulase fragment SC(1-246), unlabeled (Staphylococcus aureus, UniProt P17855 27-272)
T3 sequence: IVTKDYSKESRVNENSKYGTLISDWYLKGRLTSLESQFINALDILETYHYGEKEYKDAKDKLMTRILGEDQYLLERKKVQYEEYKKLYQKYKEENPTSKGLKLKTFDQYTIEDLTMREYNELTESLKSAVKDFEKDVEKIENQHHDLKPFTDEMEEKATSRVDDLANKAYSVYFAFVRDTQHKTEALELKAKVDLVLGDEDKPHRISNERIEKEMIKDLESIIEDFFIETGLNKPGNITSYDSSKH

[7] = biological target: Mutated Peptide Ala 8 & 9 (Staphylococcus aureus); assay: solid phase competitive inhibition ELISA
Mutated Peptide Ala 8 = Mutated Peptide Ala 8 (Staphylococcus aureus); assay: solid phase competitive inhibition ELISA
Mutated Peptide Ala 9 = Mutated Peptide Ala 9 (Staphylococcus aureus); assay: solid phase competitive inhibition ELISA
[8] = biological target: T2, BODIPY-labeled staphylocoagulase SC …; assay: fluorescence titration of BODIPY-SC(S7C)(1-325) with GMA-2105
[9] = biological target: T2, BODIPY-labeled staphylocoagulase SC …; assay: equilibrium titration in solution, increase in BODIPY fluorescence
vWbp-(1-474) = biological target: T4, vWbp-(1-474) (Staphylococcus aureus); assay: Western blot of recombinant proteins, probed with GMA-2105
T4 chain: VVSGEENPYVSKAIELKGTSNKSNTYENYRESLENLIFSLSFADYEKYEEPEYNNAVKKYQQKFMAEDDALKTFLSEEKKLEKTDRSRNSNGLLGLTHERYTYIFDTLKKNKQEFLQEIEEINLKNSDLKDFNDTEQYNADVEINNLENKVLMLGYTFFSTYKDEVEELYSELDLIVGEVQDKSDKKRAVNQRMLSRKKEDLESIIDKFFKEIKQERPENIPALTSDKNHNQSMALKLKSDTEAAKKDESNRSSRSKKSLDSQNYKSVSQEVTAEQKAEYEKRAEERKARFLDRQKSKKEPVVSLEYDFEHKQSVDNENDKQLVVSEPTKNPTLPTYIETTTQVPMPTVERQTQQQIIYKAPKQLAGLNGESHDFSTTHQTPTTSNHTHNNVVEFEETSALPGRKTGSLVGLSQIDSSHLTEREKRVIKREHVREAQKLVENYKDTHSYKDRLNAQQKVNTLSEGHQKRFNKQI

vWbp-(1-263) [10] = biological target: T1, vWbp-(1-263); assay: as above
[11] = biological target: T2, BODIPY-labeled staphylocoagulase SC …; assay: fit of the fluorescence titrations; row 'Probe SC(1-246) S7C-BodipyFL'
[12] = biological target: T2, BODIPY-labeled staphylocoagulase SC …; assay: equilibrium titration in solution, increase in BODIPY fluorescence, quadratic binding equation
[13] = biological target: T3, Staphylocoagulase fragment SC(1-246), …; assay: competitive displacement of BODIPY-labeled staphylocoagulase from GMA-2105 in solution, fluorescence
SC-(1-325), unlabeled = biological target: T5, SC-(1-325), unlabeled (Staphylococcus aureus, UniProt P17855 27-351); assay: Western blot of recombinant proteins; by the text, primary antibody at 10 µg/mL, HRP anti-mouse IgG, chemiluminescence
T5 sequence: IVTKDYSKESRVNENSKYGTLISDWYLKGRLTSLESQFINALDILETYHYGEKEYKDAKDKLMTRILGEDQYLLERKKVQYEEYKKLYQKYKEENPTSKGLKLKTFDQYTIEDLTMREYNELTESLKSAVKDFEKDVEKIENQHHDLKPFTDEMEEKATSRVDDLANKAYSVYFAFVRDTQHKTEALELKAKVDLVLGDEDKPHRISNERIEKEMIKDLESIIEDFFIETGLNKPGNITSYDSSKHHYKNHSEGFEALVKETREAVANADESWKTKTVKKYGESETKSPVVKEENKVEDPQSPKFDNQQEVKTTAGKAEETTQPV
Description: The elaborated proteins were transferred to PVDF membrane for western blot analysis to probe the specificity and cross-reactivity of the monoclonal antibodies targeting the critical N-termini of either SC or vWbp. […] Following primary antibody treatment, blots were washed and probed with horseradish peroxidase-labeled rabbit anti-mouse IgG that lacked the constant region and then imaged for chemiluminescence substrate oxidation using a Fuji-Films LAS1000. The blot was stripped between primary antibody challenges. […] To accomplish this, the blot was probed with the both the SC and vWbp neutralizing antibodies and then stained for total mouse IgG content using an anti-mouse IgG (H+L)-FITC polyclonal antibody.

[14] = biological target: T2, BODIPY-labeled staphylocoagulase SC …; assay: fluorescence titration of BODIPY-labeled SC(1-325) with chimeric GMA-2105

B1: GMA-2500 murine anti-vWbp monoclonal antibody (antibody, V domains shown)
VH: EVQLQQSGTVLARPGASVKMSCKTSGYSFTSYWIHWVKQRPGQGLEWIGAISPGNSDTNYNQNFKGKAKLTAVTSASTAYMELSSLTTEDSAVYYCATGSHYWGQGTTLSVSS
VL: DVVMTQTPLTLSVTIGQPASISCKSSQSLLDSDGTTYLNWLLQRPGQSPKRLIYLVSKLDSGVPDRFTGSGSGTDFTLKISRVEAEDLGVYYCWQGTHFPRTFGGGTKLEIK
notes: also called 10C9.D1.B6
binding result [1]: binds | EC50 (read off the curve) [2]: ~0.1 µg/mL | EC50 (read off the curve) (vWbp-(1-263) [3]): ~0.1 µg/mL | EC50 (read off the curve) (vWbp-(1-263) [4]): ~0.1 µg/mL

B2: GMA-2105 murine anti-staphylocoagulase monoclonal antibody (antibody, V domains shown)
VH: EVKLEESGGGLVQPGGSMKLSCAASGFTFSDAWMDWVRQSPEKGLEWVAEIRTKANNHATYYAESVKGRFTISRDDSKSSVYLQMNSLRAEDTGIYYCTNVYYGNNDVKDYWGQGTSVTVSP
VL: DIVMTQSQKFMSTSVGDRVSVTCKASQNVDIYVAWYQQKPGQSPKALIYSASYRFSGVPDRFTGSGSGTDFTLSISNVQSEDLAEYFCQQYNNYPYTFGGGTKLEIKR
notes: also called 2A1.5H4.B7; anti-SC Ab
Kd [5]: 0.99 nM | Kd [6]: 0.71 nM | Stoichiometry (mol mAb / mol wild type) [6]: 1.2 mol mAb / mol wild type | binding result [7]: binds | binding result (Mutated Peptide Ala 8): binds | binding result (Mutated Peptide Ala 9): binds | stoichiometry [8]: 2 mol staphylocoagulase/mol GMA-2105 | stoichiometry [9]: 1.6 mol BODIPY-SC/mol GMA-2105 | binding result (vWbp-(1-474)): no binding (tested: 10 µg/mL (from the text)) | binding result (vWbp-(1-263) [10]): no binding (tested: 10 µg/mL (from the text)) | Kd [11]: 1.09 nM | Stoichiometry (mol mAb / mol probe) [11]: 0.99 mol mAb / mol probe | Kd [12]: 2 nM | Kd [13]: 4 nM | binding result (SC-(1-325), unlabeled): binds

B3: Chimeric GMA-2105 (mouse variable regions on human constant regions) (antibody, V domains shown)
VH: EVKLEESGGGLVQPGGSMKLSCAASGFTFSDAWMDWVRQSPEKGLEWVAEIRTKANNHATYYAESVKGRFTISRDDSKSSVYLQMNSLRAEDTGIYYCTNVYYGNNDVKDYWGQGTSVTVSP
VL: DIVMTQSQKFMSTSVGDRVSVTCKASQNVDIYVAWYQQKPGQSPKALIYSASYRFSGVPDRFTGSGSGTDFTLSISNVQSEDLAEYFCQQYNNYPYTFGGGTKLEIKR
Kd [6]: 0.75 nM | Stoichiometry (mol mAb / mol wild type) [6]: 1.35 mol mAb / mol wild type | stoichiometry [14]: 2 mol staphylocoagulase/mol chimeric antibody | Kd [11]: 0.79 nM | Stoichiometry (mol mAb / mol probe) [11]: 0.94 mol mAb / mol probe
